# Results taken from patent US8129336B1, “Inhibitor of the uracil-DNA glycosylase enzyme and uses thereof” (Consejo Superior de Investigaciones Cientificas, priority 2005, dated 2012).
# Entries after “also recorded” stand apart in the source; their conditions may differ.
# T1: UDG of B. subtilis (Bacillus subtilis, UniProt P39615)
# T1 construct: endogenous in cells; host or cells: B. subtilis 110NA [pPR53.p56FLAG] lysate; UDG is the cell's own protein; only p56FLAG is plasmid-encoded
# T1 sequence (P39615 whole entry, looked up): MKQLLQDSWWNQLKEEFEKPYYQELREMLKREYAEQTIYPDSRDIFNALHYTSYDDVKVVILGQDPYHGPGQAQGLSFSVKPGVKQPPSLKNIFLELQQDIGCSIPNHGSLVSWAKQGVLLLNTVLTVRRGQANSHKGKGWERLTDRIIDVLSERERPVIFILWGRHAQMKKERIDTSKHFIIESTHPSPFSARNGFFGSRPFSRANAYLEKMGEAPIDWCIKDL
# B1: UGI: UGI protein encoded by the PBS2 bacteriophage, known inhibitor of UDG (protein, UniProt P14739 1-84, looked up)
# Uracil-DNA glycosylase …: MTNLSDIIEKETGKQLVIQESILMLPEEVEEVIGNKPESDILVHTAYDESTDENVMLLTSDAPEYKPWALVIQDSNGENKIKML
# B2: p56FLAG: p56 protein that contains amino acid sequence DYKDDDDK (FLAG peptide) fused to the C-terminal end (protein)
# chain: MVQNDFVDSYDVTMLLQDDDGKQYYEYHKGLSLSDFEVLYGNTADEIIKLRLDKVLDYKDDDDK
# What was measured:
# human UNG2 enzyme = human UNG2 enzyme (Homo sapiens, UniProt P13051); conditions: cited from earlier work
# UDG of B. subtilis = molecular target: T1, UDG of B. subtilis; experiment: Affinity chromatography on anti-FLAG M2 column, co-elution with p56FLAG; assay type: binding; conditions: extract of B. subtilis 110NA[pPR53.p56FLAG]; elution with FLAG peptide; peptide mass fingerprinting
# Protocol: In order to analyse whether the UDG enzyme is a cellular target of protein p56, affinity chromatography assays were performed. Briefly, the B. subtilis 110NA [pPR53.p56FLAG] strain was grown in LB medium with phleomycin (0.8 μg/ml) at 30° C. to an OD560 equivalent to 10^8 viable cells per ml. The culture was concentrated 10-fold in TBS buffer (50 mM Tris-HCl, pH 7.5, 150 mM NaCl) and was lysed using the French press (20,000 psi). The lysate was centrifuged at 7,000 rpm and 4° C. in the Sorvall-SS.34 rotor for 10 minutes. The supernatant was loaded in an anti-FLAG M2 column (Sigma). The proteins bound to the column were eluted with the TBS buffer containing the FLAG peptide (500 μg/ml) (Sigma). The eluted proteins were precipitated with acetone, re-suspended in the loading buffer (60 mM Tris-HCl, pH 6.8, 2% SDS, 5% β-mercaptoethanol, 30% glycerol) and separated by electrophoresis in polyacrylamide/Tricine/SDS gels (Schagger and von Jagow (1987) Anal. Biochem. 166: 368-379). The gel was stained with SyproRuby (Molecular Probes). As a negative control, an extract from the 110NA[pPR53] strain was used. In a second experiment, protein p56 (2 μg) was incubated with the UDG enzyme of E. coli (0.2 μg, New England Biolabs). After 15 minutes at ambient temperature, the reaction was analysed by electrophoresis in native polyacrylamide gels (16%). The gel was stained with SpyroRuby.
# Sequence of human UNG2 enzyme (P13051 whole entry): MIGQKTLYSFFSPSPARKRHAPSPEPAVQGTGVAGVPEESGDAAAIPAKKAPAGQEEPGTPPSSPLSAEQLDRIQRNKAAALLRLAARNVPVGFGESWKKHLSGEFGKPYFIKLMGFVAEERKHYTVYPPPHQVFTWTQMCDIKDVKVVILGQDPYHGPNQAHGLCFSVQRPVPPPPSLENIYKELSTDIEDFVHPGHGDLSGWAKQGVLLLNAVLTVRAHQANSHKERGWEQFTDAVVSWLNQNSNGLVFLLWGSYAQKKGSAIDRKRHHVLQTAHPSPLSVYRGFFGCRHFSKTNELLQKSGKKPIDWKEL
Molecule,blocking of UDG activity of human UNG2 (human UNG2 enzyme),interaction / co-elution with UDG enzyme (UDG of B. subtilis)
B1,blocks the UDG activity of the human UNG2 enzyme,–
B2,–,protein D was identified to be the UDG enzyme; also recorded: interacts with the UDG enzyme
